Laboratory results reported in publication PMC4353811.

How the values were obtained:
Rad51;Psy3-Csm2 = Rad51;Psy3-Csm2 (Saccharomyces cerevisiae;Saccharomyces …, UniProt P25454;Q12318;P40465 1-400;1-242;1-213, |); experiment: EMSA and supershift
Psy3-Csm2 = target: T1, Psy3-Csm2 (Saccharomyces cerevisiae, UniProt Q12318;P40465 1-242;1-213); experiment: EMSA
T1 sequence 1: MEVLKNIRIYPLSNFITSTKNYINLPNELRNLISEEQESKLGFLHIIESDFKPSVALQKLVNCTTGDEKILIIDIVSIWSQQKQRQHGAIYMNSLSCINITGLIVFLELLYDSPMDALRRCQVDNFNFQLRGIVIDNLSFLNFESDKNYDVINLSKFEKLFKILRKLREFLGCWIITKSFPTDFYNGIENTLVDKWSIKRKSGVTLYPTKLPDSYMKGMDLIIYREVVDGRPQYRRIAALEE
T1 sequence 2: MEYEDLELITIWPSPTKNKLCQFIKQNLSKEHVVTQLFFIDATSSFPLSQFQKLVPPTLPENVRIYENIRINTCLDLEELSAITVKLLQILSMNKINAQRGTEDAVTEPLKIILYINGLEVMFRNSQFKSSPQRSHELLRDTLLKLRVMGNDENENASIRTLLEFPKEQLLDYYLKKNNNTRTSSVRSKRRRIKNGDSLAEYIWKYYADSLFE

Psy3-Csm2-I40A/I83A = target: T2, Psy3-Csm2-I40A/I83A (Saccharomyces cerevisiae, UniProt Q12318;P40465 1-242;1-213, I40A;I83A;Csm2:); experiment: EMSA
T2 sequence 1: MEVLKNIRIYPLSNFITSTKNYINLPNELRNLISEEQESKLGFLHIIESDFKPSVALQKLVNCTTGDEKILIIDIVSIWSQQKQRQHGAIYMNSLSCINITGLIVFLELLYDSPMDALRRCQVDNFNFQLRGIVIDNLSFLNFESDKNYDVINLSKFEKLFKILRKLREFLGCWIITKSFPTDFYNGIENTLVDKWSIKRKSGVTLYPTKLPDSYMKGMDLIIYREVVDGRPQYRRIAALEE
T2 sequence 2: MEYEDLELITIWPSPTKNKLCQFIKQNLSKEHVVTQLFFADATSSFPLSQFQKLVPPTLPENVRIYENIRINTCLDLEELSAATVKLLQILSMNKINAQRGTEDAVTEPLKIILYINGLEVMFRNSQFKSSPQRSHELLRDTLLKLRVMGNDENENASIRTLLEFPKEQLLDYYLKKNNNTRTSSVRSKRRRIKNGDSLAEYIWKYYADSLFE

Psy3-Csm2-I83A/L87A = target: T3, Psy3-Csm2-I83A/L87A (Saccharomyces cerevisiae, UniProt Q12318;P40465 1-242;1-213, I83A;L87A;Csm2:); experiment: EMSA
T3 sequence 1: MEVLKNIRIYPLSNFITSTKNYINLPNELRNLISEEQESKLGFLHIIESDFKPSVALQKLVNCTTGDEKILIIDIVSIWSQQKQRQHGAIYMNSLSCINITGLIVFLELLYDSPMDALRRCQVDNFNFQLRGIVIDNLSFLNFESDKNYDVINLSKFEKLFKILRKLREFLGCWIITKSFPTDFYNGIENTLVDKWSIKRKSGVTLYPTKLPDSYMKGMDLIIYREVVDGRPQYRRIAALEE
T3 sequence 2: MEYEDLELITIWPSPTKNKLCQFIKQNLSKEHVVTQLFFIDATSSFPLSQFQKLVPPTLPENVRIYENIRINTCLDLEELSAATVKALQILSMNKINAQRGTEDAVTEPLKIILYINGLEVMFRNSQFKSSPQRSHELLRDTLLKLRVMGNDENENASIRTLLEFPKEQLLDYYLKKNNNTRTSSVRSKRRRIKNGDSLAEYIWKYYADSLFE

Measured: binding result

Rad51;Psy3-Csm2, sequence (P25454 whole entry, one chain of several): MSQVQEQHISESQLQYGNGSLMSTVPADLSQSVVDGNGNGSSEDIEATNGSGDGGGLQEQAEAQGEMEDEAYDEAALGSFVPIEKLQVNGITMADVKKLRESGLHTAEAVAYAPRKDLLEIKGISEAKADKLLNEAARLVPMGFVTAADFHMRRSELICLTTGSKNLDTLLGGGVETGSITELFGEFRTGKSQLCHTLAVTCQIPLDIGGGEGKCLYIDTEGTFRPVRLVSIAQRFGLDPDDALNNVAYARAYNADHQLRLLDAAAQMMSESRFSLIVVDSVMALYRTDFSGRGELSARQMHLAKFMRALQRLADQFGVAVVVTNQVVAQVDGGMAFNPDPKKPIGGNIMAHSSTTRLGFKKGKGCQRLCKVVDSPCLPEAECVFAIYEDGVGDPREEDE

B1: 60-mer oligo-ssDNA (ssDNA)
DNA: TGGGTGAACCTGCAGGTGGGCAAAGATGTCCTAGCAATCCATTGTCTATGACGTCAAGCT
binds: Rad51;Psy3-Csm2 | Psy3-Csm2 | Psy3-Csm2-I40A/I83A | Psy3-Csm2-I83A/L87A
